*1 amine or outer side, *2 acyl side, *3 side chain or, on linkers, in order; H or OH if unused. [ ]: non-standard residue; d: D form. 3AzaPhe4AcPip = (S)-3-(6-(4-acetylpiperazin-1-yl)pyridin-3-yl)-2-aminopropanoic acid, CC(=O)N1CCN(c2ccc(C[C@H](N[*:1])C(=O)[*:2])cn2)CC1; Trp(4-Cl)(βS-Me) = C[C@@H](c1c[nH]c2cccc(Cl)c12)[C@H](N)C(=O)O; Ala(piperidin-4-yl) = O=C([C@H](CC1CCN([*:3])CC1)N[*:1])[*:2]; Pro(trans-4-NH2) = O=C([C@@H]1C[C@@H](N[*:3])CN1[*:1])[*:2]; Bip(4'-COOH) = N[C@@H](Cc1ccc(-c2ccc(C(=O)O)cc2)cc1)C(=O)O; 1Nal(3S-Me) = C[C@@H](c1cccc2ccccc12)[C@H](N)C(=O)O; Phe(4-COOH) = N[C@@H](Cc1ccc(C(=O)O)cc1)C(=O)O; h3Pal(5-CN) = N#Cc1cncc(CC[C@H](N)C(=O)O)c1; 1Nal = N[C@@H](Cc1cccc2ccccc12)C(=O)O; hTyr = N[C@@H](CCc1ccc(O)cc1)C(=O)O; 3Pal = N[C@@H](Cc1cccnc1)C(=O)O; 4Pal = N[C@@H](Cc1ccncc1)C(=O)O; dDab = NCC[C@@H](N)C(=O)O; Orn = NCCC[C@H](N)C(=O)O; dNMeA = CN[C@H](C)C(=O)O; Dap = NC[C@H](N)C(=O)O; Aib = CC(C)(N)C(=O)O
What follows are binders tested against Recombinant human IL-1β (BioLegend 579404) (human, UniProt P01584 117-269) (assay: cell-based or functional assay).

Row | Binder | MRC5 IC50 [pM]
1 | cyclo([Bip(4'-COOH)]W[Phe(4-COOH)]G[Pro(trans-4-NH2)][Trp(4-Cl)(βS-Me)]D[dNMeA]G[Bip(4'-COOH)][1Nal]L[Aib][hTyr]) (SMILES CC(C)C[C@@H]1NC(=O)[C@H](Cc2cccc3ccccc23)NC(=O)[C@H](Cc2ccc(-c3ccc(C(=O)O)cc3)cc2)NC(=O)CNC(=O)[C@@H](C)N(C)C(=O)[C@H](CC(=O)O)NC(=O)[C@H]([C@@H](C)c2c[nH]c3cccc(Cl)c23)NC(=O)[C@@H]2C[C@@H](N)CN2C(=O)CNC(=O)[C@H](Cc2ccc(C(=O)O)cc2)NC(=O)[C@H](Cc2c[nH]c3ccccc23)NC(=O)[C@H](Cc2ccc(-c3ccc(C(=O)O)cc3)cc2)NC(=O)[C@H](CCc2ccc(O)cc2)NC(=O)C(C)(C)NC1=O) [SEQ ID NO: 36] | 52.2
2 | cyclo([Bip(4'-COOH)]W[Phe(4-COOH)]G[Pro(trans-4-NH2)][Trp(4-Cl)(βS-Me)]D[dNMeA]G[Bip(4'-COOH)][1Nal][Orn][Aib]G) (SMILES C[C@@H]1C(=O)NCC(=O)N[C@@H](Cc2ccc(-c3ccc(C(=O)O)cc3)cc2)C(=O)N[C@@H](Cc2cccc3ccccc23)C(=O)N[C@@H](CCCN)C(=O)NC(C)(C)C(=O)NCC(=O)N[C@@H](Cc2ccc(-c3ccc(C(=O)O)cc3)cc2)C(=O)N[C@@H](Cc2c[nH]c3ccccc23)C(=O)N[C@@H](Cc2ccc(C(=O)O)cc2)C(=O)NCC(=O)N2C[C@H](N)C[C@H]2C(=O)N[C@@H]([C@@H](C)c2c[nH]c3cccc(Cl)c23)C(=O)N[C@@H](CC(=O)O)C(=O)N1C) [SEQ ID NO: 37] | 103
3 | cyclo([Bip(4'-COOH)]W[Phe(4-COOH)]G[Pro(trans-4-NH2)][Trp(4-Cl)(βS-Me)]D[dNMeA]G[Bip(4'-COOH)][3Pal]S[dA][hTyr]) (SMILES C[C@@H]1C(=O)NCC(=O)N[C@@H](Cc2ccc(-c3ccc(C(=O)O)cc3)cc2)C(=O)N[C@@H](Cc2cccnc2)C(=O)N[C@@H](CO)C(=O)N[C@H](C)C(=O)N[C@@H](CCc2ccc(O)cc2)C(=O)N[C@@H](Cc2ccc(-c3ccc(C(=O)O)cc3)cc2)C(=O)N[C@@H](Cc2c[nH]c3ccccc23)C(=O)N[C@@H](Cc2ccc(C(=O)O)cc2)C(=O)NCC(=O)N2C[C@H](N)C[C@H]2C(=O)N[C@@H]([C@@H](C)c2c[nH]c3cccc(Cl)c23)C(=O)N[C@@H](CC(=O)O)C(=O)N1C) [SEQ ID NO: 38] | 217
4 | cyclo([Bip(4'-COOH)]W[Phe(4-COOH)]G[Pro(trans-4-NH2)][Trp(4-Cl)(βS-Me)]D[dNMeA]G[Bip(4'-COOH)][Ala(piperidin-4-yl)]S[dA][hTyr]) (SMILES C[C@@H]1C(=O)NCC(=O)N[C@@H](Cc2ccc(-c3ccc(C(=O)O)cc3)cc2)C(=O)N[C@@H](CC2CCNCC2)C(=O)N[C@@H](CO)C(=O)N[C@H](C)C(=O)N[C@@H](CCc2ccc(O)cc2)C(=O)N[C@@H](Cc2ccc(-c3ccc(C(=O)O)cc3)cc2)C(=O)N[C@@H](Cc2c[nH]c3ccccc23)C(=O)N[C@@H](Cc2ccc(C(=O)O)cc2)C(=O)NCC(=O)N2C[C@H](N)C[C@H]2C(=O)N[C@@H]([C@@H](C)c2c[nH]c3cccc(Cl)c23)C(=O)N[C@@H](CC(=O)O)C(=O)N1C) [SEQ ID NO: 40] | 508
5 | cyclo([Bip(4'-COOH)]W[Phe(4-COOH)]G[Pro(trans-4-NH2)][Trp(4-Cl)(βS-Me)]D[dNMeA]G[Bip(4'-COOH)][1Nal]L[Aib]G) (SMILES CC(C)C[C@@H]1NC(=O)[C@H](Cc2cccc3ccccc23)NC(=O)[C@H](Cc2ccc(-c3ccc(C(=O)O)cc3)cc2)NC(=O)CNC(=O)[C@@H](C)N(C)C(=O)[C@H](CC(=O)O)NC(=O)[C@H]([C@@H](C)c2c[nH]c3cccc(Cl)c23)NC(=O)[C@@H]2C[C@@H](N)CN2C(=O)CNC(=O)[C@H](Cc2ccc(C(=O)O)cc2)NC(=O)[C@H](Cc2c[nH]c3ccccc23)NC(=O)[C@H](Cc2ccc(-c3ccc(C(=O)O)cc3)cc2)NC(=O)CNC(=O)C(C)(C)NC1=O) [SEQ ID NO: 35] | 160

The next lines start with the values.

Row | MRC5 IC50 [pM] | Binder
6 | 132 | cyclo([Bip(4'-COOH)]W[Phe(4-COOH)]G[Pro(trans-4-NH2)][Trp(4-Cl)(βS-Me)]D[dNMeA]G[Bip(4'-COOH)]KL[dS][hTyr]) (SMILES CC(C)C[C@@H]1NC(=O)[C@H](CCCCN)NC(=O)[C@H](Cc2ccc(-c3ccc(C(=O)O)cc3)cc2)NC(=O)CNC(=O)[C@@H](C)N(C)C(=O)[C@H](CC(=O)O)NC(=O)[C@H]([C@@H](C)c2c[nH]c3cccc(Cl)c23)NC(=O)[C@@H]2C[C@@H](N)CN2C(=O)CNC(=O)[C@H](Cc2ccc(C(=O)O)cc2)NC(=O)[C@H](Cc2c[nH]c3ccccc23)NC(=O)[C@H](Cc2ccc(-c3ccc(C(=O)O)cc3)cc2)NC(=O)[C@H](CCc2ccc(O)cc2)NC(=O)[C@@H](CO)NC1=O) [SEQ ID NO: 44]
7 | 244 | cyclo([Bip(4'-COOH)]W[Phe(4-COOH)]G[Pro(trans-4-NH2)][Trp(4-Cl)(βS-Me)]D[dNMeA]G[Bip(4'-COOH)]KL[dDab][hTyr]) (SMILES CC(C)C[C@@H]1NC(=O)[C@H](CCCCN)NC(=O)[C@H](Cc2ccc(-c3ccc(C(=O)O)cc3)cc2)NC(=O)CNC(=O)[C@@H](C)N(C)C(=O)[C@H](CC(=O)O)NC(=O)[C@H]([C@@H](C)c2c[nH]c3cccc(Cl)c23)NC(=O)[C@@H]2C[C@@H](N)CN2C(=O)CNC(=O)[C@H](Cc2ccc(C(=O)O)cc2)NC(=O)[C@H](Cc2c[nH]c3ccccc23)NC(=O)[C@H](Cc2ccc(-c3ccc(C(=O)O)cc3)cc2)NC(=O)[C@H](CCc2ccc(O)cc2)NC(=O)[C@@H](CCN)NC1=O) [SEQ ID NO: 43]
8 | 75.5 | cyclo([Bip(4'-COOH)]W[Phe(4-COOH)]G[Pro(trans-4-NH2)][Trp(4-Cl)(βS-Me)]D[dNMeA]G[Bip(4'-COOH)][1Nal][Dap][Aib][h3Pal(5-CN)]) (SMILES C[C@@H]1C(=O)NCC(=O)N[C@@H](Cc2ccc(-c3ccc(C(=O)O)cc3)cc2)C(=O)N[C@@H](Cc2cccc3ccccc23)C(=O)N[C@@H](CN)C(=O)NC(C)(C)C(=O)N[C@@H](CCc2cncc(C#N)c2)C(=O)N[C@@H](Cc2ccc(-c3ccc(C(=O)O)cc3)cc2)C(=O)N[C@@H](Cc2c[nH]c3ccccc23)C(=O)N[C@@H](Cc2ccc(C(=O)O)cc2)C(=O)NCC(=O)N2C[C@H](N)C[C@H]2C(=O)N[C@@H]([C@@H](C)c2c[nH]c3cccc(Cl)c23)C(=O)N[C@@H](CC(=O)O)C(=O)N1C) [SEQ ID NO: 34]
9 | 232 | cyclo([Bip(4'-COOH)]W[Phe(4-COOH)]G[Pro(trans-4-NH2)][Trp(4-Cl)(βS-Me)]D[dNMeA]G[Bip(4'-COOH)][4Pal]S[dA][hTyr]) (SMILES C[C@@H]1C(=O)NCC(=O)N[C@@H](Cc2ccc(-c3ccc(C(=O)O)cc3)cc2)C(=O)N[C@@H](Cc2ccncc2)C(=O)N[C@@H](CO)C(=O)N[C@H](C)C(=O)N[C@@H](CCc2ccc(O)cc2)C(=O)N[C@@H](Cc2ccc(-c3ccc(C(=O)O)cc3)cc2)C(=O)N[C@@H](Cc2c[nH]c3ccccc23)C(=O)N[C@@H](Cc2ccc(C(=O)O)cc2)C(=O)NCC(=O)N2C[C@H](N)C[C@H]2C(=O)N[C@@H]([C@@H](C)c2c[nH]c3cccc(Cl)c23)C(=O)N[C@@H](CC(=O)O)C(=O)N1C) [SEQ ID NO: 39]
10 | 469 | cyclo([Bip(4'-COOH)]W[Phe(4-COOH)]G[Pro(trans-4-NH2)][Trp(4-Cl)(βS-Me)]D[dNMeA]G[Bip(4'-COOH)][Dap]S[dA][hTyr]) (SMILES C[C@@H]1C(=O)NCC(=O)N[C@@H](Cc2ccc(-c3ccc(C(=O)O)cc3)cc2)C(=O)N[C@@H](CN)C(=O)N[C@@H](CO)C(=O)N[C@H](C)C(=O)N[C@@H](CCc2ccc(O)cc2)C(=O)N[C@@H](Cc2ccc(-c3ccc(C(=O)O)cc3)cc2)C(=O)N[C@@H](Cc2c[nH]c3ccccc23)C(=O)N[C@@H](Cc2ccc(C(=O)O)cc2)C(=O)NCC(=O)N2C[C@H](N)C[C@H]2C(=O)N[C@@H]([C@@H](C)c2c[nH]c3cccc(Cl)c23)C(=O)N[C@@H](CC(=O)O)C(=O)N1C) [SEQ ID NO: 41]
11 | 43.8 | cyclo([3AzaPhe4AcPip]W[Phe(4-COOH)]G[Pro(trans-4-NH2)][1Nal(3S-Me)]D[dNMeA]G[Bip(4'-COOH)]W[Dap][dA][h3Pal(5-CN)]) (SMILES CC(=O)N1CCN(c2ccc(C[C@@H]3NC(=O)[C@H](CCc4cncc(C#N)c4)NC(=O)[C@@H](C)NC(=O)[C@H](CN)NC(=O)[C@H](Cc4c[nH]c5ccccc45)NC(=O)[C@H](Cc4ccc(-c5ccc(C(=O)O)cc5)cc4)NC(=O)CNC(=O)[C@@H](C)N(C)C(=O)[C@H](CC(=O)O)NC(=O)[C@H]([C@@H](C)c4cccc5ccccc45)NC(=O)[C@@H]4C[C@@H](N)CN4C(=O)CNC(=O)[C@H](Cc4ccc(C(=O)O)cc4)NC(=O)[C@H](Cc4c[nH]c5ccccc45)NC3=O)cn2)CC1) [SEQ ID NO: 4]
12 | 627 | cyclo([Bip(4'-COOH)]W[Phe(4-COOH)]G[Pro(trans-4-NH2)][Trp(4-Cl)(βS-Me)]D[dNMeA]G[Bip(4'-COOH)]KL[dA][hTyr]) (SMILES CC(C)C[C@@H]1NC(=O)[C@H](CCCCN)NC(=O)[C@H](Cc2ccc(-c3ccc(C(=O)O)cc3)cc2)NC(=O)CNC(=O)[C@@H](C)N(C)C(=O)[C@H](CC(=O)O)NC(=O)[C@H]([C@@H](C)c2c[nH]c3cccc(Cl)c23)NC(=O)[C@@H]2C[C@@H](N)CN2C(=O)CNC(=O)[C@H](Cc2ccc(C(=O)O)cc2)NC(=O)[C@H](Cc2c[nH]c3ccccc23)NC(=O)[C@H](Cc2ccc(-c3ccc(C(=O)O)cc3)cc2)NC(=O)[C@H](CCc2ccc(O)cc2)NC(=O)[C@@H](C)NC1=O) [SEQ ID NO: 42]
